Read-outs that look alike come from different tables or passages of the source.
T1: MMP7 (UniProt P09237 95-267, limits assumed)
T1 sequence (looked up): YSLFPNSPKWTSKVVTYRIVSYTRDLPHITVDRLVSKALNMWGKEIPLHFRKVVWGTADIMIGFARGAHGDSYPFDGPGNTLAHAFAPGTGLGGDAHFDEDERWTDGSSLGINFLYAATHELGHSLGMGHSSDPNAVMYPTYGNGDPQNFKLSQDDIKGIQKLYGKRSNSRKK

T2: Cathepsin G (UniProt P08311 21-244)
T2 sequence (looked up): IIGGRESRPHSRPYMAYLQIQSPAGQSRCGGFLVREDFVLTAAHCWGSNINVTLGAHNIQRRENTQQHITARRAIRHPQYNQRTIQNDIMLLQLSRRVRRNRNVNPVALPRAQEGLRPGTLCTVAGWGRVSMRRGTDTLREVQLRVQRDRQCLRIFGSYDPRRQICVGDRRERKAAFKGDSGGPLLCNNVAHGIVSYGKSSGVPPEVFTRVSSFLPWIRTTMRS

T3: MMP1 (human, UniProt P03956 100-469, limits assumed)
T3 sequence (looked up): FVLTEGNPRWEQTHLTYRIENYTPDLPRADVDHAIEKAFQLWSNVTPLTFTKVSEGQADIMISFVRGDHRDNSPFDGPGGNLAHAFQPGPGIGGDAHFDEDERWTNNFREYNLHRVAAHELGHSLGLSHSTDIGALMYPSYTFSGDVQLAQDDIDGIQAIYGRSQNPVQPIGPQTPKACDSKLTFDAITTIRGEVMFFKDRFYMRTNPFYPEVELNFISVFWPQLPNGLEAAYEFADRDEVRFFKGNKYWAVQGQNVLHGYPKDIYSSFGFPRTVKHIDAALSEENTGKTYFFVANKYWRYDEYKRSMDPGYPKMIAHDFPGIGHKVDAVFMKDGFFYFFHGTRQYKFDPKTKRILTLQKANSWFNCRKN

T4: MMP2 (human, UniProt P08253 110-660, limits assumed)
T4 sequence (looked up): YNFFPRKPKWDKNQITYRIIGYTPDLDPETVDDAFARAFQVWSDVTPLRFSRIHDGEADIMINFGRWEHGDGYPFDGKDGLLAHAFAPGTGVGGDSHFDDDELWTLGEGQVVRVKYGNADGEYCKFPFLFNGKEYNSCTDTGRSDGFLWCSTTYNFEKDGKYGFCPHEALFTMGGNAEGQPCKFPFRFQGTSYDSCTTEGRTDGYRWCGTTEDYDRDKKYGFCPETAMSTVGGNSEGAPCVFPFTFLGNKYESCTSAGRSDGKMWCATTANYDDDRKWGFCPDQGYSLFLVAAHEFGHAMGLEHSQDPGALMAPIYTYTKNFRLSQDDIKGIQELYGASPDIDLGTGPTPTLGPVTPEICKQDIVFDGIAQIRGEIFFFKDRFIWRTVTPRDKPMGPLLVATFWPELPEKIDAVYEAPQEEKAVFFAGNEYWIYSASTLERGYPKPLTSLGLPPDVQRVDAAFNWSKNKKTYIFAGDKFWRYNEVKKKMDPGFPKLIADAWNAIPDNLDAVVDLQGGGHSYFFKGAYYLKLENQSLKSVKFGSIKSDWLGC

T5: ADAMTS5 (human, UniProt Q9UNA0 262-622, limits assumed)
T5 sequence (looked up): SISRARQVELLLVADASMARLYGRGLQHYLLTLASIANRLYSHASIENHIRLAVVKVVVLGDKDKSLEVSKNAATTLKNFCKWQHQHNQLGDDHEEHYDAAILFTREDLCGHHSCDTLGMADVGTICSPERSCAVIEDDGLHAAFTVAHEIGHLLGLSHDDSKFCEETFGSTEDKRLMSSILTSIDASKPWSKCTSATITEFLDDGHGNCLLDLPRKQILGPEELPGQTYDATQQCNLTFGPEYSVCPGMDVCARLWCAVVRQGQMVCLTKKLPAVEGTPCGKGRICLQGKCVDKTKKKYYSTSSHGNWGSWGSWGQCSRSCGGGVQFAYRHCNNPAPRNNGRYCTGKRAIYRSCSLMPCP

B1: Variant A2M, bait region SEQ ID NO 29 (other)
chain: SVSGKPQYMVLVPSLLHTETTEKGCVLLSYLNETVTVSASLESVRGNRSLFTDLEAENDVLHCVAFAVPKSSSNEEVMFLTVQVKGPTQEFKKRTTVMVKNEDSLVFVQTDKSIYKPGQTVKFRVVSMDENFHPLNELIPLVYIQDPKGNRIAQWQSFQLEGGLKQFSFPLSSEPFQGSYKVVVQKKSGGRTEHPFTVEEFVLPKFEVQVTVPKIITILEEEMNVSVCGLYTYGKPVPGHVTVSICRKYSDASDCHGEDSQAFCEKFSGQLNSHGCFYQQVKTKVFQLKRKEYEMKLHTEAQIQEEGTVVELTGRQSSEITRTITKLSFVKVDSHFRQGIPFFGQVRLVDGKGVPIPNKVIFIRGNEANYYSNATTDEHGLVQFSINTTNVMGTSLTVRVNYKDRSPCYGYQWVSEEHEEAHHTAYLVFSPSKSFVHLEPMSHELPCGHTQTVQAHYILNGGTLLGLKKLSFYYLIMAKGGIVRTGTHGLLVKQEDMKGHFSISIPVKSDIAPVARLLIYAVLPTGDVIGDSAKYDVENCLANKVDLSFSPSQSLPASHAHLRVTAAPQSVCALRAVDQSVLLMKPDAELSASSVYNLLPEKDLTGFPGPLNDQDDEDCINRHNVYINGITYTPVSSTNEKDMYSFLEDMGLKAFTNSKIRKPKMCPQLEQPEGEGEGPRYLTAIPENFFGVSEDLVVQISELEGRGSVEEPHTKLRKYFPETWIWDLVVVNSAGVAEVGVTVPDTITEWKAGAFCLSEDAGLGISSTASLRAFQPFFVELTMPYSVIRGEAFTLKATVLNYLPKCIRVSVQLEASPAFLAVPVEKEQAPHCICANGRQTVSWAVTPKSLGNVNFTVSAEALESQELCGTEVPSVPEHGRKDTVIKPLLVEPEGLEKETTFNSLLCPSGGEVSEELSLKLPPNVVEESARASVSVLGDILGSAMQNTQNLLQMPYGCGEQNMVLFAPNIYVLDYLNETQQLTPEIKSKAIGYLNTGYQRQLNYKHYDGSYSTFGERYGRNQGNTWLTAFVLKTFAQARAYIFIDEAHITQALIWLSQRQKDNGCFRSSGSLLNNAIKGGVEDEVTLSAYITIALLEIPLTVTHPVVRNALFCLESAWKTAQEGDHGSHVYTKALLAYAFALAGNQDKRKEVLKSLNEEAVKKDNSVHWERPQKPKAPVGHFYEPQAPSAEVEMTSYVLLAYLTAQPAPTSEDLTSATNIVKWITKQQNAQGGFSSTQDTVVALHALSKYGAATFTRTGKAAQVTIQSSGTFSSKFQVDNNNRLLLQQVSLPELPGEYSMKVTGEGCVYLQTSLKYNILPEKEEFPFALGVQTLPQTCDEPKAHTSFQISLSVSYTGSRSASNMAIVDVKMVSGFIPLKPTVKMLERSNHVSRTEVSSNHVLIYLDKVSNQTLSLFFTVLQDVPVRDLKPAIVKVYDYYETDEFAIAEYNAPCSKDLGNADYKDDDDKGASHHHHHH
B2: Variant A2M, bait region SEQ ID NO 124 (other)
chain: SVSGKPQYMVLVPSLLHTETTEKGCVLLSYLNETVTVSASLESVRGNRSLFTDLEAENDVLHCVAFAVPKSSSNEEVMFLTVQVKGPTQEFKKRTTVMVKNEDSLVFVQTDKSIYKPGQTVKFRVVSMDENFHPLNELIPLVYIQDPKGNRIAQWQSFQLEGGLKQFSFPLSSEPFQGSYKVVVQKKSGGRTEHPFTVEEFVLPKFEVQVTVPKIITILEEEMNVSVCGLYTYGKPVPGHVTVSICRKYSDASDCHGEDSQAFCEKFSGQLNSHGCFYQQVKTKVFQLKRKEYEMKLHTEAQIQEEGTVVELTGRQSSEITRTITKLSFVKVDSHFRQGIPFFGQVRLVDGKGVPIPNKVIFIRGNEANYYSNATTDEHGLVQFSINTTNVMGTSLTVRVNYKDRSPCYGYQWVSEEHEEAHHTAYLVFSPSKSFVHLEPMSHELPCGHTQTVQAHYILNGGTLLGLKKLSFYYLIMAKGGIVRTGTHGLLVKQEDMKGHFSISIPVKSDIAPVARLLIYAVLPTGDVIGDSAKYDVENCLANKVDLSFSPSQSLPASHAHLRVTAAPQSVCALRAVDQSVLLMKPDAELSASSVYNLLPEKDLTGFPGPLNDQDDEDCINRHNVYINGITYTPVSSTNEKDMYSFLEDMGLKAFTNSKIRKPKMCPQLEQYEMHGPKEEEGLGSSELEGRGSEAIPMSIPTIPENFFGVVEEPHTKLRKYFPETWIWDLVVVNSAGVAEVGVTVPDTITEWKAGAFCLSEDAGLGISSTASLRAFQPFFVELTMPYSVIRGEAFTLKATVLNYLPKCIRVSVQLEASPAFLAVPVEKEQAPHCICANGRQTVSWAVTPKSLGNVNFTVSAEALESQELCGTEVPSVPEHGRKDTVIKPLLVEPEGLEKETTFNSLLCPSGGEVSEELSLKLPPNVVEESARASVSVLGDILGSAMQNTQNLLQMPYGCGEQNMVLFAPNIYVLDYLNETQQLTPEIKSKAIGYLNTGYQRQLNYKHYDGSYSTFGERYGRNQGNTWLTAFVLKTFAQARAYIFIDEAHITQALIWLSQRQKDNGCFRSSGSLLNNAIKGGVEDEVTLSAYITIALLEIPLTVTHPVVRNALFCLESAWKTAQEGDHGSHVYTKALLAYAFALAGNQDKRKEVLKSLNEEAVKKDNSVHWERPQKPKAPVGHFYEPQAPSAEVEMTSYVLLAYLTAQPAPTSEDLTSATNIVKWITKQQNAQGGFSSTQDTVVALHALSKYGAATFTRTGKAAQVTIQSSGTFSSKFQVDNNNRLLLQQVSLPELPGEYSMKVTGEGCVYLQTSLKYNILPEKEEFPFALGVQTLPQTCDEPKAHTSFQISLSVSYTGSRSASNMAIVDVKMVSGFIPLKPTVKMLERSNHVSRTEVSSNHVLIYLDKVSNQTLSLFFTVLQDVPVRDLKPAIVKVYDYYETDEFAIAEYNAPCSKDLGNADYKDDDDKGASHHHHHH

How the values were obtained:
Experiment in all cases: cell-based or functional assay
MMP7 = biological target: T1, MMP7
Cathepsin G [1] = biological target: T2, Cathepsin G
MMP1 = biological target: T3, MMP1
MMP9 = MMP9 (human, UniProt P14780 107-707, limits assumed)
MMP8 = MMP8 (human, UniProt P22894 101-467, limits assumed)
MMP13 = MMP13 (human, UniProt P45452 104-471, limits assumed)
MMP2 = biological target: T4, MMP2
Elastase [2] = biological target: Elastase
MMP3 = MMP3 (human, UniProt P08254 100-477, limits assumed)
ADAMTS5 = biological target: T5, ADAMTS5
Cathepsin G [3] = biological target: T2, Cathepsin G; remark: listed apart in the source
Elastase [4] = biological target: Elastase; remark: listed apart in the source

Sequence of MMP8 (P22894 101-467 limits assumed): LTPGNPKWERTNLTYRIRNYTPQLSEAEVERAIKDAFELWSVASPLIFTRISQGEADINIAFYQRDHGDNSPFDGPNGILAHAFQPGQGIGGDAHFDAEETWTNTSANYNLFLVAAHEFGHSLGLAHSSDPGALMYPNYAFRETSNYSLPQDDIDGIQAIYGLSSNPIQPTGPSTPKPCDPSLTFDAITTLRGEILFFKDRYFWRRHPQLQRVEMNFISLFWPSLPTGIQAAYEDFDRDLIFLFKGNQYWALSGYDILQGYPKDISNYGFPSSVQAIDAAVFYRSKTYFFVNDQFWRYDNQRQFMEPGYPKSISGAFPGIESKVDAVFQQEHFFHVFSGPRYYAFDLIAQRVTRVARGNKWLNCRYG
Sequence of MMP9 (P14780 107-707 limits assumed): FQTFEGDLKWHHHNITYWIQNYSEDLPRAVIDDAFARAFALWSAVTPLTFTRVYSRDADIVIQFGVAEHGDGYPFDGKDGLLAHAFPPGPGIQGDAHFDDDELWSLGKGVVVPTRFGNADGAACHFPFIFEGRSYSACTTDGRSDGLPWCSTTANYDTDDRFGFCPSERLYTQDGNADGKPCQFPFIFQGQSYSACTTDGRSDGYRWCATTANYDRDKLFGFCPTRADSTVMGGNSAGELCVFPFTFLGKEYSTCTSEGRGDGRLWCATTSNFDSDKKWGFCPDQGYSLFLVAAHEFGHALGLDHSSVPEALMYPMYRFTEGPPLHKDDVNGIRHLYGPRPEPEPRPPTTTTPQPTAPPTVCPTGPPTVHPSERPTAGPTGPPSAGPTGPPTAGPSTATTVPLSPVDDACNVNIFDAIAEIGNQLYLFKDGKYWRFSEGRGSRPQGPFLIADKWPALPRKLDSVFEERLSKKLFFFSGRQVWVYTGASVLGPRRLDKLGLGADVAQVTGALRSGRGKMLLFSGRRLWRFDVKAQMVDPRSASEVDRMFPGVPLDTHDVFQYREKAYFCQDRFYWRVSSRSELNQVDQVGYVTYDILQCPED
Sequence of MMP3 (P08254 100-477 limits assumed): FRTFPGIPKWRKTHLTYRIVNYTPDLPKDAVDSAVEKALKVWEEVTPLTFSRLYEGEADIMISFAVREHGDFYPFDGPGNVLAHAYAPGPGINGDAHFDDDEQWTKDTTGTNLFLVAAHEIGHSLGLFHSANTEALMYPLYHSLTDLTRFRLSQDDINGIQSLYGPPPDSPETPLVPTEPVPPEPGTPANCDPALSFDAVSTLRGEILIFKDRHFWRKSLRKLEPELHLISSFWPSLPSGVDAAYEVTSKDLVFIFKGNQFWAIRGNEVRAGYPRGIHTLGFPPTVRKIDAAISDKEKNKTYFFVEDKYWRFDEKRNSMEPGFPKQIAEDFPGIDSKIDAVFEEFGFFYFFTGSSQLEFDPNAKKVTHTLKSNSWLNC

Row | Protease Inhibition (% of WT) (MMP7) | Protease Inhibition (% of WT) (Cathepsin G [1]) | Protease Inhibition (% of WT) (MMP1) | Protease Inhibition (% of WT) (MMP9) | Protease Inhibition (% of WT) (MMP8) | Protease Inhibition (% of WT) (MMP13) | Protease Inhibition (% of WT) (MMP2) | Protease Inhibition (% of WT) (Elastase [2]) | Protease Inhibition (% of WT) (MMP3) | Protease Inhibition (% of WT) (ADAMTS5) | Protease Inhibition (% of WT) (Cathepsin G [3]) | Protease Inhibition (% of WT) (Elastase [4]) | Binder
1 | 104 % of WT | 84 % of WT | 87 % of WT | 5 % of WT | 29 % of WT | 70 % of WT | 16 % of WT | 98 % of WT | 101 % of WT | 85 % of WT | – | – | B1
2 | – | – | – | – | – | – | – | – | – | – | 250 % of WT | 75 % of WT | B2
